Columns and labels:
[1] = target: RsbS (wild type), Listeria monocytogenes (Listeria monocytogenes); assay: cryo-EM structure; stressosomes assembled from purified RsbR, RsbS and RsbT (1:2:5 molar ratio, overnight, 4 °C), purified on Superose 6 in 20 mM Tris-HCl pH 8.5, 250 mM NaCl, 1 mM DTT, 1 mM ADP; 50-150 ug/mL on GO-amino grids; C1, no symmetry imposed; only RsbR and RsbS modelled
[2] = target: RsbS S56A, Listeria monocytogenes (Listeria monocytogenes); assay: as above

Row | Substance | stoichiometry N [1] | stoichiometry N [2]
1 | RsbR T209A, Listeria monocytogenes (natural protein) | 3 RsbR to RsbS | –
2 | RsbR T175A, Listeria monocytogenes (natural protein) | 2 RsbR to RsbS | –
3 | RsbR (wild type), Listeria monocytogenes (from UniProt Q8GD19 1-278) (natural protein) | – | 2 RsbR to RsbS
4 | RsbR T209E, Listeria monocytogenes (natural protein) | 1 RsbR to RsbS | –

Reference: article PMC12154155
